29 molecules from US20260242478A1 (published 2026) can be followed below.

Where no end group is shown, it is not given here.

B1: Phage-992 (peptide)
peptide: YCDGHSQAHMQKCL
modifications: cysteine pairing not given here; also: displayed fused to phage pIII protein, fusion end and linker not given here
notes: Clonal phage of the peptide-87 library, tested as crude supernatant; not shown: fused to the pIII filament protein of the bacteriophage
B2: Phage-989 (peptide)
peptide: YCAGHSEEYMDKCL
modifications: cysteine pairing not given here; also: displayed fused to phage pIII protein, fusion end and linker not given here
notes: as for B1
B3: Phage-984 (peptide)
peptide: YCQGHLPQYVEKCL
modifications: cysteine pairing not given here; also: displayed fused to phage pIII protein, fusion end and linker not given here
notes: as for B1
B4: Phage-994 (peptide)
peptide: YCDGHLPVYMMKCL
modifications: cysteine pairing not given here; also: displayed fused to phage pIII protein, fusion end and linker not given here
notes: as for B1
B5: Phage-995 (peptide)
peptide: YCAGHNAQYMSKCL
modifications: cysteine pairing not given here; also: displayed fused to phage pIII protein, fusion end and linker not given here
notes: as for B1
B6: Phage-986 (peptide)
peptide: YCDGHSQEYMAHCL
modifications: cysteine pairing not given here; also: displayed fused to phage pIII protein, fusion end and linker not given here
notes: as for B1
B7: Phage-993 (peptide)
peptide: YCAGHDQQYMEKCL
modifications: cysteine pairing not given here; also: displayed fused to phage pIII protein, fusion end and linker not given here
notes: as for B1
B8: Phage-987 (peptide)
peptide: YCDGHSPLYMVKCL
modifications: cysteine pairing not given here; also: displayed fused to phage pIII protein, fusion end and linker not given here
notes: as for B1
B9: Phage-990 (peptide)
peptide: YCDGHSEVYMSKCL
modifications: cysteine pairing not given here; also: displayed fused to phage pIII protein, fusion end and linker not given here
notes: as for B1
B10: Phage-985 (peptide)
peptide: YCEGHLDMYVWKCL
modifications: cysteine pairing not given here; also: displayed fused to phage pIII protein, fusion end and linker not given here
notes: as for B1
B11: Phage-988 (peptide)
peptide: YCDGHFLTYMTKCL
modifications: cysteine pairing not given here; also: displayed fused to phage pIII protein, fusion end and linker not given here
notes: as for B1
B12: Phage-991 (peptide)
peptide: YCEGHTLEYMWKCL
modifications: cysteine pairing not given here; also: displayed fused to phage pIII protein, fusion end and linker not given here
notes: as for B1
B13: Phage-983 (peptide)
peptide: YCDGHLPMYMKKCL
modifications: cysteine pairing not given here; also: displayed fused to phage pIII protein, fusion end and linker not given here
notes: as for B1
B14: Phage-996 (peptide)
peptide: YCDGHTSEYMTKCL
modifications: cysteine pairing not given here; also: displayed fused to phage pIII protein, fusion end and linker not given here
notes: as for B1
B15: Phage-1075 (peptide)
peptide: YCDGHAPEYIQKCL
modifications: cysteine pairing not given here; also: displayed as fusion to phage pIII, linker not given here
B16: Phage-1076 (peptide)
peptide: YCEGHLDEYLQKCL
modifications: cysteine pairing not given here; also: displayed as fusion to phage pIII, linker not given here

One test deals with T1, Anti-CD28 Fab (SEQ ID NOs: 696, 697).
T1 construct: In the phage ELISA the Fab was biotinylated and captured on neutravidin coated plates
As to the kind of experiment: phage ELISA; Fab-coated wells pre-incubated with CD28 antigen as competitor, anti-M13-HRP detection. Background: ELISA stands for enzyme-linked immunosorbent assay.
T1 sequence (VH, as listed by the source, chain 1 of 2): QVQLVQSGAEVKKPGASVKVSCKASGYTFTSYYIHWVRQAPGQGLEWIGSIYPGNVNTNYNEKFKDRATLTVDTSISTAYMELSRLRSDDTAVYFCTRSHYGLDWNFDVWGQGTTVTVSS
T1 sequence (VL, as listed by the source, chain 2 of 2): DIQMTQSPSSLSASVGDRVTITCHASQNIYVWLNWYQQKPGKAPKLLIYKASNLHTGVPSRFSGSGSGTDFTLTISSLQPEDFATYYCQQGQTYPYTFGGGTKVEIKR
Description: (§1) After panning, phage infected bacteria were plated out and colonies picked into 96 well blocks. Clonal phage was then amplified and separated from bacterial cells via centrifugation.
(§2) Clonal phage were harvested as crude supematants and screened via standard ELISAs. […] Prior to the addition of clonal phage, wells were incubated with blocking buffer and CD28 antigen or blocking buffer alone. Without washing or aspirating, clonal phage supematants were then added to the wells and incubated for a short time. Wells were then washed followed by detection of bound phage using a horse radish conjugated anti-M13 antibody. Clonal phage of interest were then sent for sequence analysis.
YCVGHLPQYMEKCL (Tested as clonal phage supernatant) [Phage-717]: the “Phage binding ELISA, Anti-CD28 Fab signal in the presence of CD28” value is 0.08.

As to YCDGHLGIYMTKCL (Tested as clonal phage supernatant) [Phage-718], the “Phage binding ELISA, Anti-CD28 Fab signal in the presence of CD28” value came to 0.08.

On to YCDGHSDQYMWKCL (Tested as clonal phage supernatant) [Phage-711], for which the “Phage binding ELISA, Anti-CD28 Fab signal in the presence of CD28” value turned out to be 0.11.

In the case of YCAGHLPMYMHKCL (Tested as clonal phage supernatant) [Phage-714], the “Phage binding ELISA, Anti-CD28 Fab signal in the presence of CD28” value was determined as 0.18.

With YCEGHLPMYFLKCM (Tested as clonal phage supernatant) [Phage-720], the “Phage binding ELISA, Anti-CD28 Fab signal in the presence of CD28” value came to 0.06.

Turning to YCEGHAAEYMMKCL (Tested as clonal phage supernatant) [Phage-713], the “Phage binding ELISA, Anti-CD28 Fab signal in the presence of CD28” value came out at 0.07.

With YCDGHLPIYMTQCL (Tested as clonal phage supernatant) [Phage-721], the “Phage binding ELISA, Anti-CD28 Fab signal in the presence of CD28” value stood at 0.08.

Consider YCDGHLWEYMDKCL (Tested as clonal phage supernatant) [Phage-719], for which the “Phage binding ELISA, Anti-CD28 Fab signal in the presence of CD28” value was 0.06.

Turning to YCDGHSQEYIAKCL (Tested as clonal phage supernatant) [Phage-715], the “Phage binding ELISA, Anti-CD28 Fab signal in the presence of CD28” value was 0.07.

Turning to YCDGHSPIYMSKCL (Tested as clonal phage supernatant) [Phage-710], the “Phage binding ELISA, Anti-CD28 Fab signal in the presence of CD28” value is 0.09.

With YCEGHLAEYMDKCL (Tested as clonal phage supernatant) [Phage-722], the “Phage binding ELISA, Anti-CD28 Fab signal in the presence of CD28” value turned out to be 0.07.

Take YCDGHLPQYMSKCL (Tested as clonal phage supernatant) [Phage-712]: the “Phage binding ELISA, Anti-CD28 Fab signal in the presence of CD28” value amounted to 0.1.

Consider YCDGHMPQYMSKCL (Tested as clonal phage supernatant) [Phage-716], for which the “Phage binding ELISA, Anti-CD28 Fab signal in the presence of CD28” value came out at 0.08.

The target is the same in another test. As to the kind of experiment: phage ELISA; biotinylated anti-CD28 Fab on neutravidin plates, bound phage detected with anti-M13-HRP.
Target sequence in this assay (VH, as listed by the source, chain 1 of 2): as the sequence (VH, as listed by the source, chain 1 of 2) above
Target sequence in this assay (VL, as listed by the source, chain 2 of 2): as the sequence (VL, as listed by the source, chain 2 of 2) above
Description: as §1, §2
With YCVGHLPQYMEKCL (Tested as clonal phage supernatant) [Phage-717], the “Phage binding ELISA, Anti-CD28 Fab signal” value is 1.98.

YCDGHLGIYMTKCL (Tested as clonal phage supernatant) [Phage-718]: the “Phage binding ELISA, Anti-CD28 Fab signal” value was determined as 1.98.

Turning to YCDGHSDQYMWKCL (Tested as clonal phage supernatant) [Phage-711], the “Phage binding ELISA, Anti-CD28 Fab signal” value turned out to be 2.

Turning to YCAGHLPMYMHKCL (Tested as clonal phage supernatant) [Phage-714], the “Phage binding ELISA, Anti-CD28 Fab signal” value came to 1.99.

For the molecule YCEGHLPMYFLKCM (Tested as clonal phage supernatant) [Phage-720], the “Phage binding ELISA, Anti-CD28 Fab signal” value stood at 1.97.

YCEGHAAEYMMKCL (Tested as clonal phage supernatant) [Phage-713]: the “Phage binding ELISA, Anti-CD28 Fab signal” value is 1.99.

Take YCDGHLPIYMTQCL (Tested as clonal phage supernatant) [Phage-721]: the “Phage binding ELISA, Anti-CD28 Fab signal” value was found to be 1.97.

Turning to YCDGHLWEYMDKCL (Tested as clonal phage supernatant) [Phage-719], the “Phage binding ELISA, Anti-CD28 Fab signal” value was 1.97.

Consider YCDGHSQEYIAKCL (Tested as clonal phage supernatant) [Phage-715], for which the “Phage binding ELISA, Anti-CD28 Fab signal” value was 1.99.

As to YCDGHSPIYMSKCL (Tested as clonal phage supernatant) [Phage-710], the “Phage binding ELISA, Anti-CD28 Fab signal” value was determined as 2.

With YCEGHLAEYMDKCL (Tested as clonal phage supernatant) [Phage-722], the “Phage binding ELISA, Anti-CD28 Fab signal” value was 1.96.

Consider YCDGHLPQYMSKCL (Tested as clonal phage supernatant) [Phage-712], for which the “Phage binding ELISA, Anti-CD28 Fab signal” value was determined as 2.

Turning to YCDGHMPQYMSKCL (Tested as clonal phage supernatant) [Phage-716], the “Phage binding ELISA, Anti-CD28 Fab signal” value was 1.98.

The target in a further test is T2, Anti-CD28 Fab (SEQ ID NOs: 696, 697).
T2 construct: In the phage ELISA the Fab was biotinylated and captured on neutravidin coated plates
As to the kind of experiment: phage binding ELISA; Fab-coated wells pre-incubated with CD28 antigen as competitor, anti-M13 HRP detection.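 Note: crude clonal phage supernatants from panned colonies added to wells after blocking buffer plus CD28 treatment, bound phage measured after a brief incubation and washing.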
T2 sequence (VH, as listed by the source, chain 1 of 2): as the sequence (VH, as listed by the source, chain 1 of 2) above
T2 sequence (VL, as listed by the source, chain 2 of 2): as the sequence (VL, as listed by the source, chain 2 of 2) above
For B1, the “Anti-CD28 Fab signal in the presence of CD28” value was 0.08.

As for B2, the “Anti-CD28 Fab signal in the presence of CD28” value turned out to be 0.05.

For the molecule B3, the “Anti-CD28 Fab signal in the presence of CD28” value turned out to be 0.08.

Turning to B4, the “Anti-CD28 Fab signal in the presence of CD28” value came to 0.07.

As for B5, the “Anti-CD28 Fab signal in the presence of CD28” value was found to be 0.05.

B6: the “Anti-CD28 Fab signal in the presence of CD28” value is 0.07.

For B7, the “Anti-CD28 Fab signal in the presence of CD28” value came to 0.23.

In the case of B8, the “Anti-CD28 Fab signal in the presence of CD28” value is 0.06.

As for B9, the “Anti-CD28 Fab signal in the presence of CD28” value was 0.06.

B10: the “Anti-CD28 Fab signal in the presence of CD28” value worked out at 0.08.

Turning to B11, the “Anti-CD28 Fab signal in the presence of CD28” value turned out to be 0.07.

On to B12, for which the “Anti-CD28 Fab signal in the presence of CD28” value was found to be 0.33.

B13: the “Anti-CD28 Fab signal in the presence of CD28” value was 0.1.

In the case of B14, the “Anti-CD28 Fab signal in the presence of CD28” value worked out at 0.06.

The next test deals with T3, Anti-CD28 Fab (SEQ ID NOs: 696, 697).
T3 construct: In the phage ELISA the Fab was biotinylated and captured on neutravidin coated plates
As to the kind of experiment: phage binding ELISA; biotinylated anti-CD28 Fab on neutravidin plate, clonal phage detected with anti-M13 HRP.
T3 sequence (VH, as listed by the source, chain 1 of 2): as the sequence (VH, as listed by the source, chain 1 of 2) above
T3 sequence (VL, as listed by the source, chain 2 of 2): as the sequence (VL, as listed by the source, chain 2 of 2) above
Description: as §1, §2
B15: the “Anti-CD28 Fab signal (phage binding ELISA)” value stood at 1.38.

With B16, the “Anti-CD28 Fab signal (phage binding ELISA)” value came to 1.38.

The target is the same in a further test. As to the kind of experiment: phage binding ELISA; Fab-coated wells pre-incubated with CD28 antigen as competitor, phage detected with anti-M13 HRP.
Target sequence in this assay (VH, as listed by the source, chain 1 of 2): as the sequence (VH, as listed by the source, chain 1 of 2) above
Target sequence in this assay (VL, as listed by the source, chain 2 of 2): as the sequence (VL, as listed by the source, chain 2 of 2) above
Description: as §1, §2
For B15, the “Anti-CD28 Fab signal in the presence of CD28 (phage binding ELISA)” value came out at 0.06.

For the molecule B16, the “Anti-CD28 Fab signal in the presence of CD28 (phage binding ELISA)” value was found to be 0.07.

The next test concerns the target T2, Anti-CD28 Fab (SEQ ID NOs: 696, 697). As to the kind of experiment: phage binding ELISA; biotinylated anti-CD28 Fab on neutravidin plate, clonal phage supernatant, anti-M13 HRP detection.
For the molecule B1, the “Anti-CD28 Fab signal (phage binding ELISA)” value is 1.55.

As to B2, the “Anti-CD28 Fab signal (phage binding ELISA)” value stood at 1.55.

As for B3, the “Anti-CD28 Fab signal (phage binding ELISA)” value is 1.57.

For B4, the “Anti-CD28 Fab signal (phage binding ELISA)” value worked out at 1.55.

Regarding B5, the “Anti-CD28 Fab signal (phage binding ELISA)” value stood at 1.55.

For the molecule B6, the “Anti-CD28 Fab signal (phage binding ELISA)” value stood at 1.56.

B7: the “Anti-CD28 Fab signal (phage binding ELISA)” value was determined as 1.55.

For the molecule B8, the “Anti-CD28 Fab signal (phage binding ELISA)” value came to 1.56.

For B9, the “Anti-CD28 Fab signal (phage binding ELISA)” value amounted to 1.55.

Take B10: the “Anti-CD28 Fab signal (phage binding ELISA)” value was determined as 1.56.

On to B11, for which the “Anti-CD28 Fab signal (phage binding ELISA)” value was 1.56.

Take B12: the “Anti-CD28 Fab signal (phage binding ELISA)” value worked out at 1.55.

Regarding B13, the “Anti-CD28 Fab signal (phage binding ELISA)” value amounted to 1.57.

For B14, the “Anti-CD28 Fab signal (phage binding ELISA)” value is 1.54.
